Substrate in data set [1]: NC(=O)c1ccc[n+]([C@@H]2O[C@H](COP(=O)(O)OP(=O)(O)OC[C@H]3O[C@@H](n4cnc5c(N)ncnc54)[C@H](O)[C@@H]3O)[C@@H](O)[C@H]2O)c1
The data set can be described thus: purified protein. Particulars: co-substrate phosphite, 100 mM MOPS pH 7.25, 30 °C.

Substrate in data set [2]: O=[PH](O)O
As to the kind of experiment: purified protein. The note with it: co-substrate NAD+, 100 mM MOPS pH 7.25, 30 °C.

B1: PTDH ortholog from N. punctiforme (Nostoc punctiforme PCC 73102) (protein)
chain: MKPKVVITHWVHPEIITNLSEYCEVVANPTRETLPREEILKLAQDAEALMVFMPDRIDEAFLKACPKLKIIAGALKGYDNFDVDACTRQGIWFTIVPSLLAVPTAELTIGLIIGLARQMLLGDRLIRQGTFAGWRPHLYGMGLANRTLGIVGMGSLGQALAQRLSSFEMNLIYTDAIPLPKEKAAAWCLSQVSLDTLLATSDFVVLMVPLQPETFHLINEKSLARMKPGSFLINPCRGSVVDEQAVSDALASGHLAGYAADVFELEDWARSDRPSKIPPSLLEKQDQTFFTPHLGSAVDDLRYDIAIEASQNILQVLQGHSPQGAINCPS
For B1, the Km in “purified protein [1]” is listed as 19.4 (1.6) μM; in “purified protein [2]”, 25.4 (1.2) μM. Also, the kcat in the data set “purified protein [1]” and in the data set “purified protein [2]” was 3.36 (0.03) s^-1 throughout.

B2: wt-PTDH (P. stutzeri) (Stutzerimonas stutzeri) (protein)
chain: MLPKLVITHRVHDEILQLLAPHCELMTNQTDSTLTREEILRRCRDAQAMMAFMPDRVDADFLQACPELRVVGCALKGFDNFDVDACTARGVWLTFVPDLLTVPTAELAIGLAVGLGRHLRAADAFVRSGEFQGWQPQFYGTGLDNATVGILGMGAIGLAMADRLQGWGATLQYHEAKALDTQTEQRLGLRQVACSELFASSDFILLALPLNADTQHLVNAELLALVRPGALLVNPCRGSVVDEAAVLAALERGQLGGYAADVFEMEDWARADRPRLIDPALLAHPNTLFTPHIGSAVRAVRLEIERCAAQNIIQVLAGARPINAANRLPKAEPAAC
Regarding B2, in “purified protein [1]”, the Km was 52.2 (3.3) μM and the kcat is 6.57 (0.03) s^-1. Besides, in the data set “purified protein [2]”, the Km is reported as 81.1 (1.6) μM and the kcat was 6.57 (0.03) s^-1.

B3: PTDH ortholog from R. metallidurans (Cupriavidus metallidurans CH34) (protein)
chain: MNHRKIVVTQPVHEEVLRKLQAEGEVIMNPGPDPWSPSQLREYLVDADAMMAFMTDSVTKESLLNAPRLKTISCALKGYDNFDLRACAQAGVSVTFVPDLLTEPTAELAIGLAIAAGRNVLQGDAATRAGYSGWRPALYGTGLHGSVASVIGLGKVGQAILARLAGFGCARLLGVDPSVRLDQVELVTLDEAVSTSDYVFLAVPLVSDTRHLVDSRMLQLSKKGQILVNVGRGSVVDERAVVDALANEQLGAYAADVYEMEDWLLPDRPREIHPGLTNNARTVLTPHIGSAVRRVRFEIEMRAAENLVRSLRGESLSDVAVEASAAA
On to B3, for which the figures for the Km in the data set “purified protein [1]” and in “purified protein [2]” were 4.5 (0.9) μM and 54.9 (6.8) μM, respectively. Further, the kcat in the data set “purified protein [1]” and in “purified protein [2]” was 6.83 (0.43) s^-1 throughout.

Values taken from article PMC3361975.
